± gives the uncertainty stated by the source.

A short description of this series: amyloid nucleation score (Sup35N fusion, yeast selection) (log enrichment); library NNK3; higher = more nucleation; inactive = no reads after selection. An outline of the steps:
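Nucleation score: DiMSum log enrichment of output over input reads, centred on the mode score of non-aggregating sequences. Only sequences with at least 100 input reads were kept. Reads came from Illumina sequencing of plasmid inserts before and after 7 days of growth at 30°C without adenine and uracil, in psi-negative yeast expressing Sup35N fused to peptides of 20 random codons after 24 hours of induction with 100 μM copper sulfate.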
The substance RPGTCNLLVDGHLSWFQSAT showed an amyloid nucleation score of -0.288 ± 1. The result for RTFPLTLRSSHSPFKPLMFL reads “inactive”. The result for VREFTFYDV reads “inactive”.

As for LGVHWNPFIWVSSDARQNSR, the amyloid nucleation score was -0.089 ± 0.96. The result for DVMEVNLVPRAFNLCSSSGL reads “inactive”; that for PVSICQFIVSMANFDLCSQG, 1.93 ± 0.068. The result for YLGEHRVVVRNSMSPQPWLS reads “inactive”; that for IMNSPKGYTILWRGSLRGIQ, “inactive”; that for NFFITTDPPGFR, “inactive”.

Take IMVVQYTWDWPGCCWIRWYL: the amyloid nucleation score result is “inactive”. The result for WALWICC reads 0.83 ± 0.13. On to FKLHCSDRYECTKDLSHLWC, for which the amyloid nucleation score entry is “inactive”.

IVITHANTWMLLLVFPITAN: the amyloid nucleation score result is “inactive”. On to QNGDKHYG, for which the amyloid nucleation score result was “inactive”. The result for DYVFPRVYRGS reads “inactive”.

Consider RFSFVTRFRYREQLPLVR, for which the amyloid nucleation score is 0.068 ± 0.82.

Consider EARLTSLCKKQYEF, for which the amyloid nucleation score result is “inactive”. With SYSQKKRHVSKSTGSRAWQA, the amyloid nucleation score result is “inactive”. The result for GQWLYGWTRYVGPTI reads “inactive”. Regarding LNQGSYYGMARFPL, the amyloid nucleation score result is “inactive”. As to DDVTGKMKKIVCVDSHCQLP, the amyloid nucleation score entry is “inactive”. The result for TFVKSVLSYVLGLELSLRGL reads “inactive”; that for WSWRDLEGQNSGKEAVILEL, “inactive”; that for GMYGMSGMV, “inactive”. The result for IPFGFSI reads “inactive”; that for SNKECLLGIGWFASYKVIPT, “inactive”; that for APAEIFDLLKSMNGTLCRMG, “inactive”. The result for RKKESYSN reads “inactive”; that for RLSYQYFCQAMRMEGEFWSY, -0.16 ± 0.33; that for KFSCINVDPMHYSNSWTT, “inactive”. In the case of SRLNWSRRWSLVSQNARRTS, the amyloid nucleation score result is “inactive”. The result for VCNSYCMPRPRILQSQGGMG reads “inactive”; that for YLFWLYERRKGDYISPHVLR, “inactive”; that for VDVCITFCWIARLMV, “inactive”. The result for FVASHLVVAKGVKASVRKFY reads 1.31 ± 0.089; that for NINIY, -0.302 ± 0.96. For the substance LCHVVSDMVLSIQHYHACLS, the amyloid nucleation score result was “inactive”. For CFPIPVWRGDLNGAPRYAQM, the amyloid nucleation score entry is “inactive”. The result for GVCKWFCESIDMTLRAVWAN reads “inactive”; that for FRNWIWVLYEV, “inactive”; that for TRYPFQWLLRVGWKGAHLGM, “inactive”. On to MTSIQEF, for which the amyloid nucleation score result is “inactive”. On to LTRRSRLWHMSSYTWKKDVI, for which the amyloid nucleation score was determined as 0.084 ± 0.5. In turn, CNLVVYCMSDNDV had an amyloid nucleation score of 2.33 ± 0.049.

Turning to PNALDRIYSG, the amyloid nucleation score result was “inactive”.

With LPRLYDFLGLVWVIA, the amyloid nucleation score entry is “inactive”. The result for MCQNLRMYMIYHRQGKWMKS reads “inactive”. The result for CRMDGIKGSEIRNADAWAIY reads “inactive”.

In the case of KNEVIYHWLRRRVNSRRTFR, the amyloid nucleation score entry is “inactive”. Turning to SPHLLDWSKIAFLVSHMPHS, the amyloid nucleation score result is “inactive”. As for CSLLGKMLTYNSDYGFQLNY, the amyloid nucleation score result is “inactive”. FGKGVCRLD: the amyloid nucleation score entry is “inactive”. The result for QHSGRWCGAPALGNLVAMSS reads “inactive”; that for LNFPQMSYP, “inactive”; that for SFNVDAYMNINCW, 1.02 ± 0.21.

Take DAIEKD: the amyloid nucleation score result was “inactive”.

As to NDFLCI, the amyloid nucleation score result was “inactive”. Take LSSIWKGLRGLFIFFWHIKK: the amyloid nucleation score entry was “inactive”.

With QCTASLEHHFVNNQDNASAW, the amyloid nucleation score result is “inactive”. The result for CNQTSM reads “inactive”; that for GCFVNN, “inactive”. The result for KCMQVVSSRSWVVHWGWKGG reads “inactive”.

Consider IQANSLLSRLLRLSGNCCWM, for which the amyloid nucleation score was found to be 0.127 ± 0.8. As to PWKCTWFMALEVFRMYLRSF, the amyloid nucleation score result was “inactive”. As for CRAVND, the amyloid nucleation score entry was “inactive”. As for NYALWFANI, the amyloid nucleation score result is “inactive”. The result for KSFELYSKNVMYDSVLGVCL reads “inactive”; that for NLDYLVNLLCDYLES, -0.703 ± 1.9; that for SGFLYCNLSKSSCYAFQAGG, “inactive”.

With YCVQCR, the amyloid nucleation score result is “inactive”.

LWSIRYFKIS: the amyloid nucleation score entry was “inactive”. In the case of SLFFN, the amyloid nucleation score result was “inactive”. The result for VVLQDPGSLYEPRSHGTWFT reads “inactive”. The result for STWDLNMCLFRYMFKI reads “inactive”; that for RSALRVM, “inactive”.

On to SMQKGGK, for which the amyloid nucleation score result is “inactive”.

Turning to RFGYKLFRSSVYGRGESYDY, the amyloid nucleation score result is “inactive”. As to FECRQ, the amyloid nucleation score result was “inactive”.

As to KTSINGKADFG, the amyloid nucleation score result was “inactive”.

With GCRLPSWMYLVGELISFLSG, the amyloid nucleation score result is “inactive”.

In the case of ELDGMTYASDHAFCISRNSS, the amyloid nucleation score result was “inactive”. The result for FGNLLVLSYDEDCNAATWVR reads “inactive”; that for FWSDFYPHVLIRWFRSMVRS, “inactive”. The result for VVIVLLKFR reads “inactive”.

The substance QTEFSIGPYIPTEATSRTCS showed an amyloid nucleation score of -0.451 ± 1. The result for LSSFIFCFSLYAVLTMGVVH reads “inactive”. For NNIPCGMGPSSSSCNASD, the amyloid nucleation score entry is “inactive”. For the substance VLVICWFRDDGYSVFLCCQT, the amyloid nucleation score entry was “inactive”. The result for VGGFKTILSIRRAAKCLCVG reads “inactive”; that for VFYGLYF, “inactive”. Take LCRNWVR: the amyloid nucleation score entry was “inactive”. The result for MMRNTDK reads “inactive”. As to EDVYFSYGDVWMVIGALTTV, the amyloid nucleation score entry is “inactive”. The result for IIFWNICPAYCYL reads 2.29 ± 0.059; that for GLALGWHFTC, “inactive”. With VATKQVVQGLMSPNN, the amyloid nucleation score entry was “inactive”. For SAFGTQGYCKSSVFPEASPR, the amyloid nucleation score result was “inactive”. In the case of GPPLNYEVT, the amyloid nucleation score entry is “inactive”. With SCALDLIDLQKGVTSHKEFI, the amyloid nucleation score entry is “inactive”. For DSTDFRVLRGRRSRGEYVRG, the amyloid nucleation score entry was “inactive”. Take CWVIVAYTI: the amyloid nucleation score result is “inactive”. With VDHGRD, the amyloid nucleation score result was “inactive”. The result for VNEIRDILLVSYSKFRAWGQ reads 1.2 ± 0.13; that for FGGVGAW, “inactive”; that for KLQEDKLGPSKNKPSVHLCF, “inactive”. ALTWMRMYALCNIEVNHYST yielded an amyloid nucleation score of 2.07 ± 0.066. For LTDRDDDSTHVRSPYSRLLW, the amyloid nucleation score entry was “inactive”.

As for DSSSDGSLTYDRGRSRSLFE, the amyloid nucleation score result was “inactive”. Regarding KTQDKITGFLTVLWLRKLVP, the amyloid nucleation score entry was “inactive”. Take LSGKTMVFFPKSNMRNNTRS: the amyloid nucleation score entry was “inactive”.

With CPCFNLV, the amyloid nucleation score result is “inactive”. The result for NRINLDSSPLKGYFLINTIT reads “inactive”. Consider WGTRLWIVVQIGQEYVLLVR, for which the amyloid nucleation score was -0.234 ± 1.1.

Regarding SLKEVSFWSASRDDGGDRMQ, the amyloid nucleation score result is “inactive”. The result for YNFECLIFWSVKYLVCQHIT reads “inactive”. Consider WMRVPRMWEGKANFISG, for which the amyloid nucleation score entry is “inactive”. As for MTSQSMKVISWCDRHRQMNS, the amyloid nucleation score was determined as 1.03 ± 0.13. The result for FDGFLNFVITSRSNVF reads “inactive”; that for YGLVGQFSTVGTKQALLLGT, “inactive”. In the case of PRSCN, the amyloid nucleation score entry was “inactive”. The result for YSKRSLDYI reads “inactive”. The result for ISVVMDNSACG reads “inactive”; that for RWRFRRWVS, “inactive”; that for SDMCMVLFLLTVYFVMSGRC, 0.133 ± 0.67.

On to SRCFWQSLEVTVILGSCINT, for which the amyloid nucleation score worked out at 1.64 ± 0.11. Regarding WLHTCRGSMDW, the amyloid nucleation score entry is “inactive”.

IYVARSGARGRGSWSLCKIC gave an amyloid nucleation score of 0.629 ± 0.28.

Take FCFIHIFNHNSRTNF: the amyloid nucleation score result is “inactive”. The result for VKFVCKAELLDLT reads “inactive”. NSVIGVFQLESSRRGLWDFI registered an amyloid nucleation score of 1.52 ± 0.11. The result for SSSLCASWHPYLKWKSYRMF reads “inactive”; that for TSNALYLLLLRHLYNMLLHV, “inactive”. With FFYDLMYLIMV, the amyloid nucleation score entry was “inactive”.
